Values of other authors as cited in paper PMC6396024, “Artemin and an Artemin-Derived Peptide, Artefin, Induce Neuronal Survival, and Differentiation Through Ret and NCAM” (Frontiers in Molecular Neuroscience, 2019).

Test system: NCAM
Details: ref Paratcha et al., 2003; Nielsen et al., 2009; cited from earlier work
Description: We have previously shown that the GDNF-binding site for NCAM is localized to the heel region and that gliafin, a GDNF-derived peptide covering this region, binds to NCAM ([Nielsen et al., 2009]). As the tertiary structure of ARTN is similar to that of GDNF, we speculated that the artefin motif also contains a potential binding site for NCAM. […] Whether NCAM can be an alternative receptor for other GFLs has been establish ...

B1: GDNF: glial cell line-derived neurotrophic factor (protein, UniProt P39905 78-211, looked up)
Glial cell line-derived …: SPDKQMAVLPRRERNRQAAAANPENSRGKGRRGQRGKNRGCVLTAIHLNVTDLGLGYETKEELIFRYCSGSCDAAETTYDKILKNLSRNRRLVSDKVGQACCRPIAFDDDLSFLDDNLVYHILRKHSAKRCGCI
**Q.** Which “interaction with NCAM” value does the source give for B1 here?
**A.** interacts directly with NCAM
